Results reported in paper PMC7864943, “Structural elements in the flexible tail of the co-chaperone p23 coordinate client binding and progression of the Hsp90 chaperone cycle” (Nature Communications, 2021).
Values belong to the binder of their own block, whether it stands above or below them.

Experiments:
Conditions in all cases: both partners purified
[1] = target: T1, yeast Hsp90 (Hsp82), full length (yeast, UniProt P02829 1-709); experiment: ITC; 20 µM Hsp90 in the cell, p23^WT (135 µM) or mutants (up to 360 µM) in the syringe; 2 mM AMP-PNP; 40 mM Hepes, 150 mM KCl, 5 mM MgCl2, 1 mM DTT, pH 7.5; 30 °C
T1 construct: Hsp90 (Hsp82), yeast, full-length protein; Isotope-labelled (methyl-labelled, deuterated) in some NMR experiments; also called Hsp90 FL; Hsp90 dimer
T1 sequence (P02829 whole entry): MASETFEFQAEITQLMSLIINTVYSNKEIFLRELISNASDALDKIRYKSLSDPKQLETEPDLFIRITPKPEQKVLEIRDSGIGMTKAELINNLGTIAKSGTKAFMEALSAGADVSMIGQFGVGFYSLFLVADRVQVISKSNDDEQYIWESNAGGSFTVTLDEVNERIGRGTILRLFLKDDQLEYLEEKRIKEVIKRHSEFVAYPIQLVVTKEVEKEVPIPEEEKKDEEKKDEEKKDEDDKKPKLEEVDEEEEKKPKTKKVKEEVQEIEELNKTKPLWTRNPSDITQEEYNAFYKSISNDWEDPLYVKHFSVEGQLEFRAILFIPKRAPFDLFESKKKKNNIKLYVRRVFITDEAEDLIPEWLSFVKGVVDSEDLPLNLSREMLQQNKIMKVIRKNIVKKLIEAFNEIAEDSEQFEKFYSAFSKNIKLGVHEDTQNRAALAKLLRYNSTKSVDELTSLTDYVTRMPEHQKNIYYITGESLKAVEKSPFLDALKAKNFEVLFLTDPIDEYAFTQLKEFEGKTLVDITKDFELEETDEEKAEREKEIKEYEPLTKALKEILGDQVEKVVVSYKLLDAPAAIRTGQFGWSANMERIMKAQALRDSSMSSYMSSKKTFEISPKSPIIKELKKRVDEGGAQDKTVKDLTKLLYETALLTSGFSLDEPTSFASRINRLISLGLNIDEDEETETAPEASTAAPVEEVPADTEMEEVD

[2] = target: T1, yeast Hsp90 (Hsp82), full length; experiment: ATPase inhibition assay; apparent Ki; ATP-regenerating system, 30 °C; 3 µM yeast Hsp90 (Hsp82) with rising concentrations of p23 or mutants; 40 mM Hepes, 150 mM KCl, 5 mM MgCl2, 1 mM DTT, pH 7.5; 2 mM ATP
[3] = target: T2, human Hsp90β, full length (human, UniProt P08238 1-724); experiment: NMR titration; 1H-15N HSQC of 15N-labeled p23 with unlabeled full-length Hsp90/AMP-PNP or GR-LBDm alone; peak intensity ratios; 25 mM Tris, 200 mM NaCl, 5 mM DTT, 0.5 mM dexamethasone, pH 7; 30 °C
T2 construct: also called Hsp90 FL (human); source: E. coli BL-21 DE3, purified (the methods speak of Hsp90 and p23 in general)
T2 sequence (P08238 whole entry): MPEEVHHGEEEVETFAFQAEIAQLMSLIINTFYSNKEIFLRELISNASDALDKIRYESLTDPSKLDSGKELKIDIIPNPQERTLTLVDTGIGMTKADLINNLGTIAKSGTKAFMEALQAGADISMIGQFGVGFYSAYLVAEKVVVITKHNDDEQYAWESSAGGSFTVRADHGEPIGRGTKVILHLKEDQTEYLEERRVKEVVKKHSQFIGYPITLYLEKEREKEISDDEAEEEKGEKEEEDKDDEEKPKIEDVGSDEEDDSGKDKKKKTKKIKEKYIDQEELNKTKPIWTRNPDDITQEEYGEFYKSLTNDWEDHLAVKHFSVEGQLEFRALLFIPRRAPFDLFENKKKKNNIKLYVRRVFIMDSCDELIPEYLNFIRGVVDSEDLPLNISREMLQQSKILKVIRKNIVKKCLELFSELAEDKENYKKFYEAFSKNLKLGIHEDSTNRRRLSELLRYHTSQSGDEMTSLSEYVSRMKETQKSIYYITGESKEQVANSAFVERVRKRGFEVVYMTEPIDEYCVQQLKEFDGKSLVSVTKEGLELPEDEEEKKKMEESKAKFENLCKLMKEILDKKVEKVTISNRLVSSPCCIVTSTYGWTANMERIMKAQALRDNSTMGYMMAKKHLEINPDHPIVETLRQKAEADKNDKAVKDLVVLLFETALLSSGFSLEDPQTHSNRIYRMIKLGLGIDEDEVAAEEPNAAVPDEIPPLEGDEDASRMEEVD

B1: yeast p23^Δ88 (domain or fragment, UniProt P28707 1-128, looked up)
chain: MSDKVINPQVAWAQRSSTTDPERNYVLITVSIADCDAPELTIKPSYIELKAQSKPHVGDENVHHYQLHIDLYKEIIPEKTMHKVANGQHYFLKLYKKDLESEYWPRLTKEKVKYPYIKTDFDKWVDED
notes: p23/Sba1, yeast, C-terminal deletion mutant Δ88; source: E. coli BL-21 DE3, purified
Kd [1]: 2300 nM
Ki [2]: 2200 nM

B4: yeast p23^Δ91 (domain or fragment, UniProt P28707 1-125, looked up)
chain: MSDKVINPQVAWAQRSSTTDPERNYVLITVSIADCDAPELTIKPSYIELKAQSKPHVGDENVHHYQLHIDLYKEIIPEKTMHKVANGQHYFLKLYKKDLESEYWPRLTKEKVKYPYIKTDFDKWV
notes: p23/Sba1, yeast, C-terminal deletion mutant Δ91; source: E. coli BL-21 DE3, purified
Ki [2]: 10800 nM

Other lines, results leading:

Kd [1]: 1300 nM
Ki [2]: 2600 nM
B2: yeast p23^W124A (natural protein, UniProt P28707 1-216, looked up)
chain: MSDKVINPQVAWAQRSSTTDPERNYVLITVSIADCDAPELTIKPSYIELKAQSKPHVGDENVHHYQLHIDLYKEIIPEKTMHKVANGQHYFLKLYKKDLESEYWPRLTKEKVKYPYIKTDFDKAVDEDEQDEVEAEGNDAAQGMDFSQMMGGAGGAGGAGGMDFSQMMGGAGGAGSPDMAQLQQLLAQSGGNLDMGDFKENDEEDEEEEIEPEVKA
notes: p23/Sba1, yeast, point mutant of the wild type (aa 1-216); source: E. coli BL-21 DE3, purified

binding result [3]: binds
B3: human p23 (natural protein, UniProt Q15185 1-160, looked up)
chain: MQPASAKWYDRRDYVFIEFCVEDSKDVNVNFEKSKLTFSCLGGSDNFKHLNEIDLFHCIDPNDSKHKRTDRSILCCLRKGESGQSWPRLTKERAKLNWLSVDFNNWKDWEDDSDEDMSNFDRFSEMMNNMGGDEDVDLPEVDGADDDSQDSDDEKMPDLE
notes: p23, human; helical stretch at residues 117-127 of the tail; 15N-labelled; also called p23 (human); source: E. coli BL-21 DE3, purified (the methods speak of Hsp90 and p23 in general)
